± gives the uncertainty stated by the source.
B1: Chromodomain-helicase-DNA-binding protein 5, residues 411 to 463; numbered along this chain, Q8TDI0 (parent)
chain: EEDDHMEFCRVCKDGGELLCCDACPSSYHLHCLNPPLPEIPNGEWLCPRCTCP

Variants of: B1
Assay: abundance fitness (aPCA) (normalised: wild type 0, dead -1); higher = more abundant; growth selection in yeast, the domain comes from the species named
Details: Homo sapiens

Abundance fitness, by site and new letter:
N34: C -0.074 ± 0.1; K 0.046 ± 0.1; M -0.221 ± 0.11; T -0.189 ± 0.099; S 0.097 ± 0.06; Y -0.139 ± 0.17; H -0.303 ± 0.2; A -0.018 ± 0.052; W -0.204 ± 0.067; P -0.463 ± 0.14; D -0.27 ± 0.12; L -0.015 ± 0.048; V -0.067 ± 0.073; G -0.169 ± 0.063; F 0.066 ± 0.096; Q 0.021 ± 0.064; I -0.132 ± 0.15; R -0.039 ± 0.057; E -0.036 ± 0.069
P41: V 0.043 ± 0.069; L -0.019 ± 0.059; I -0.159 ± 0.14; G 0.064 ± 0.078; R -0.004 ± 0.045; Q -0.051 ± 0.11; D 0.246 ± 0.12; N 0.168 ± 0.15; A -0.144 ± 0.087; S 0.047 ± 0.078; T 0.002 ± 0.073; W -0.393 ± 0.11; Y -0.043 ± 0.2; M -0.262 ± 0.091
P36: G -0.169 ± 0.06; K 0.088 ± 0.11; H -0.211 ± 0.15; V 0.066 ± 0.088; A 0.099 ± 0.08; S -0.023 ± 0.066; L -0.215 ± 0.055; F -0.091 ± 0.12; D -0.068 ± 0.048; Q 0.089 ± 0.1; M -0.026 ± 0.082; N -0.591 ± 0.32; I 0.125 ± 0.12; Y -0.838 ± 0.22; C -0.084 ± 0.088; E -0.194 ± 0.1
G43: A 0.047 ± 0.076; F 0.149 ± 0.13; H -0.148 ± 0.1; I -0.392 ± 0.14; C -0.112 ± 0.087; R -0.074 ± 0.08; Q 0.039 ± 0.12; V 0.004 ± 0.066; N 0.039 ± 0.07; E 0.003 ± 0.071; L -0.152 ± 0.068; M -0.333 ± 0.2; T -0.142 ± 0.09; K -0.037 ± 0.12; P -0.041 ± 0.047; S -0.008 ± 0.065; D -0.238 ± 0.11
P48: S -0.025 ± 0.071; W -0.412 ± 0.12; M -0.389 ± 0.09; A -0.27 ± 0.085; F 0.31 ± 0.12; D 0.212 ± 0.11; V -0.24 ± 0.075; Y -0.149 ± 0.059; C 0.023 ± 0.12; N -0.106 ± 0.12; K -0.419 ± 0.14; E 0.177 ± 0.11; I -0.312 ± 0.24; L -0.564 ± 0.1; T -0.004 ± 0.092; H 0.014 ± 0.13; Q -0.09 ± 0.079

Source: the Human Domainome abundance scans (Beltran et al. 2025)
